First the molecules themselves.
B3: adaptor protein FADD (human) (other, UniProt Q13158 1-208, looked up)
chain: MDPFLVLLHSVSSSLSSSELTELKFLCLGRVGKRKLERVQSGLDLFSMLLEQNDLEPGHTELLRELLASLRRHDLLRRVDDFEAGAAAGAAPGEEDLCAAFNVICDNVGKDWRRLARQLKVSDTKIDSIEDRYPRNLTERVRESLRIWKNTEKENATVAHLVGALRSCQMNLVADLVQEVQQARDLQNRSGAMSPMSWNSDASTSEAS
notes: also called CAP1

Assay [1] concerns the target T1, Flag-marked FLIPP (caspase-homologous C-terminal protein segment of human FLIPL) (human, UniProt O15519 233-480).
T1 construct: also called caspase-homologous protein segment of FLIPL
Kind of assay: anti-Flag immune precipitation, anti-myc Western blot, co-transfected 293T cells (with FADD). In general terms: Immunoblotting shows a protein as a band on a membrane.

Assay [2] addresses B3. The assay can be described thus: anti-Flag immune precipitation, anti-FADD Western blot, 293T cells.
In assay [3] the target is T2, CD95 (APO-1/Fas) death receptor of human Raji B cells, stimulated with agonistic anti-APO-1 antibody (human, UniProt P25445 26-335).
T2 construct: whole, on cells; also called CD95 death receptor; CD95 receptor complex
T2 sequence: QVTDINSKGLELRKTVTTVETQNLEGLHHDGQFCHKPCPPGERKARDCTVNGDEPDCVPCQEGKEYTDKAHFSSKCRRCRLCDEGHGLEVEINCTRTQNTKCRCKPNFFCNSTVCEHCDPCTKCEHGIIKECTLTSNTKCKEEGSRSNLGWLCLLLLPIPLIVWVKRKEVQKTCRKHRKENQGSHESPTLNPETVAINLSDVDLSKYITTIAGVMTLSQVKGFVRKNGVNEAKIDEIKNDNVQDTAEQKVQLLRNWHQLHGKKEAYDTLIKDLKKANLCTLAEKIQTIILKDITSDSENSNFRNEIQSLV
The assay can be described thus: anti-CD95 (APO-1) immune precipitation from Raji clones, gels.

Assay [4] has as its target T1, Flag-marked FLIPP (caspase-homologous …). Kind of assay: anti-Flag immune precipitation, anti-FADD Western blot, co-transfected 293T cells.
In assay [5] the target is T3, Flag-marked 159L protein (viral FLIP, ORF 159L of molluscum contagiosum virus, MCV) (molluscum contagiosum virus (MCV), UniProt Q98325 1-241).
T3 construct: also called Flag-159L; 159L-FLIP (MCV)
T3 sequence: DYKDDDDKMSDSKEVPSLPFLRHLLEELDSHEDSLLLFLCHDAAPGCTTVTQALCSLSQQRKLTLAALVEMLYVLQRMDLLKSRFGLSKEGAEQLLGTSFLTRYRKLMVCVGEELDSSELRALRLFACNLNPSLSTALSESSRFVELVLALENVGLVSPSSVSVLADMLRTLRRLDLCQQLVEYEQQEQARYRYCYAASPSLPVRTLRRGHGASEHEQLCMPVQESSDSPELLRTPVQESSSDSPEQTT
The assay can be described thus: co-transfection in 293T cells, anti-Flag immune precipitation, anti-FADD Western blot.

T1 sequence (O15519 other isoform, or with tags, fused parts or gaps limits assumed): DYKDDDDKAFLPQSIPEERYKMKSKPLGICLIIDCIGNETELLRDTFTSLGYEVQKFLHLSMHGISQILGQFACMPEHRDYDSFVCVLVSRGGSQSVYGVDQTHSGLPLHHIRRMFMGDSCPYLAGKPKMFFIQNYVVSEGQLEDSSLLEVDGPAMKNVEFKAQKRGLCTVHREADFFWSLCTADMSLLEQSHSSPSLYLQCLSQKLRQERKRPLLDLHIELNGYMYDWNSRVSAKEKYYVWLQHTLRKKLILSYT

B1: myc-marked cytoplasmic protein segment of the CD95 (Fas) death receptor (receptor, murine, UniProt P25446 187-327, looked up, not shown: small tags and cut ends)
chain: RKYRKRKCWKRRQDDPESRTSSRETIPMNASNLSLSKYIPRIAEDMTIQEAKKFARENNIKEGKIDEIMHDSIQDTAEQKVQLLLCWYQSHGKSDAYQDLIKGLKKAECRRTLDKFQDMVQKDLGKSTPDTGNENEGQCLE
notes: range 166-306; also called myc-CD95; my-CD95
Take B1: in assay [1], the binding result was “no binding”.

B2: Flag-marked E8 protein (viral FLIP, ORF E8 of equine herpes virus 2, EHV-2) (other, equine herpes virus 2 (EHV-2))
chain: DYKDDDDKMSHYSMIDTYFSLDEDETETYLYLCRDLLKNKGEFQCTRDAFKFLSDYACLSAANQMELLFRVGRLDLIRRIFGQTWTPDSCPRYYMPICSPFRCLMALVNDFLSDKEVEEMYFLCAPRLESHLEPGSKKSFLRLASLLEDLELLGGDKLTFLRHLLTTIGRADLVKNLQV
notes: mature; also called Flag-E8; E8 FLIP
For B2, the binding result in assay [2] and in assay [3] was “binds” throughout.

Take B3: the binding result in assay [4] is “no binding”; in assay [5] it was “binds”.
